Non-standard residues stand in square brackets, D forms with d. No end group written: not given here.
Tests used:
[1] = system: Aβ; settings: AD model mice, after 1 day of treatment; cited from earlier work
[2] = target: T1, biotinylated Aβ^1-40 peptide (Homo sapiens, UniProt P05067); assay: Direct ELISA: plate-immobilised capture peptide probed with biotinylated Aβ1-40; format: binding; settings: 1 μg/well capture peptide, 1 μg/ml biotinylated Aβ, 2 hours; compared with scrambled or irrelevant control peptide (FIG. 1a)
T1 construct: purchased
T1 sequence (P05067 672-711): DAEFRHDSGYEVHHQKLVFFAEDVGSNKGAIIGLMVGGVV
Procedure: (§1) FIG. 1a graphically illustrates binding of biotinylated Aβ^1-42 and biotinylated Aβ^1-40 peptide (SEQ ID NO: 2) by RI peptide. 96-well plate was coated with the capture peptide (1 μg/well of retro-inverso [RI], scrambled [SCR] or an irrelevant control peptide), blocked with gelatin and probed with 1 μg/ml of biotinylated Aβ peptide for 2 hours and streptavidin peroxidase for 1 hour. Experiments were repeated and were calculated as Mean±SE (N=2) and expressed as pmols Aβ^1-42/ml of binding solution. Graded concentrations of biotinylated Aβ^1-42 peptide (SEQ ID NO: 3) was used as a calibration standard.
(§2) Testing the binding and stability of biotinylated Aβ peptides in binding solution.

[3] = target: T2, biotinylated Aβ^1-42 peptide (Homo sapiens, UniProt P05067); assay: Direct ELISA: plate-immobilised capture peptide probed with biotinylated Aβ1-42; format: binding; settings: 1 μg/well capture peptide, 1 μg/ml biotinylated Aβ, 2 hours; compared with scrambled or irrelevant control peptide (FIG. 1a)
T2 construct: purchased
T2 sequence (P05067 672-713): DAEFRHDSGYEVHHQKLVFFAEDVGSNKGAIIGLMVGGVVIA
Procedure: as §1, §2

[4] = target: Aβ (Homo sapiens, UniProt P05067); settings: shortest fragment of Aβ1-40; cited from earlier work
Sequence of Aβ (Homo sapiens, UniProt P05067) (P05067 672-711 limits assumed): as the sequence (P05067 672-711) above

[5] = target: Aβ fibril formation (Homo sapiens, UniProt P05067); settings: microscopy; cited from earlier work
Sequence of Aβ fibril formation (P05067 672-711 limits assumed): as the sequence (P05067 672-711) above

[6] = target: biotinylated Abeta 1-40 peptide; assay: binding experiments with the gel, ELISA of the solution
Sequence of biotinylated Abeta 1-40 peptide (peptide, as listed by the source): as the sequence (P05067 672-711) above

Sequence of Aβ (P05067 672-711 limits assumed): as the sequence (P05067 672-711) above

Molecule: GM1
- levels of Aβ in brain [1]: reduced in half
- reduction of Aβ in brain [1]: ~500 ng/g tissue

Molecule: phe-phe-val-leu-lys-Cys ([dF][dF][dV][dL][dK][dC]; not fully specified (C-terminus); printed as phe-phe-val-leu-lys-cys) [RI peptide]
- binding of biotinylated Aβ^1-40 to immobilised peptide [2]: significant and specific binding
- binding of biotinylated Aβ^1-42 to immobilised peptide [3]: significant and specific binding

Molecule: KLVFF
- Aβ binding capacity [4]: consistently high Aβ binding capacity
- effect on fibril formation in vitro [5]: able to interfere with fibril formation

Molecule: gelsolin
- levels of Aβ in brain [1]: reduced in half
- reduction of Aβ in brain [1]: ~500 ng/g tissue

B1: detox gel (RI gel): retro-inverso peptide phe-phe-val-leu-lys-Cys linked by its cysteine thiol to a cross-linked 8-arm PEG hydrogel (peptide)
peptide: FFVLKC
modifications: not fully specified; composed of D-amino acids; Cys thiol linked to vinyl sulfone-PEG of the gel matrix; C-terminus amidated per the note to Table 1
- percent of possible binding in a 1:1 complex [6]: 5%
